According to patent publication US7244430:

B1: SC04-353 (scFv)
scFv: EVQLVQSGGGVVQPGRSLRLSCAASGFTFSNYAMHWVRQAPGKGLEWVAVISYDGGNKYYADSVKGRFTMSRDNSKNTLYLQMNSLRAEDTAVYYCARDFWSGYSMVDSYYYYMDVWGKGTTVTVSSGTGGSGGTGSGTGGSTETTLTQSPGTLSLSPGERATLSCRASQSVSNTFLAWYQQKPGQAPRLLIYGASSRATGIPDRFSGSGSGTDFTLTISRLEPEDFAAYYCQQYGSSLTFGPGTKVDIKR
B2: SC04-361 (scFv)
scFv: EVQLVQSGAEVKKPGESLKISCKASGFSFSTYWIGWVRQMPGKGLEWMGIIYPADSDTRYSPSFQGQVTISADKSISTAYLQWSSLKASDTAMYYCARLRGPYYDFWNGYRETHDAFNVWGQGTMVTVSSGTGGSGGTGSGTGGSTDVVMTQSPDSLAVSLGERATINCKSSQNILDNSDNKNFLAWYQQKPGQPPKLLIYWASARESGVPDRFSGSGSGTDFTLTISSLQAEDVALYYCQQYYNTPITFGQGTRLEIKR
B3: SC04-374 (scFv)
scFv: QVTLKESGPTLVKPTQTLTLTCTFSGFSLSTSGVGVGWIRQPPGKALEWLAVIYWNDDKLYRPSLKSRLTITKDTSKNQVVLTMTKMDPVDTATYYCAHRHRYYDISGYYRLFSDAFDIWGQGTMVTVSSGTGGSGGTGSGTGGSTQSVVTQPPSVSGAPGQRVTISCTGSSSNIGAGYDVHWYQQLPGTAPKLLIYGNSNRPSGVPDRFSGSKSGTSASLAITGLQAEDEADYYCQSYDSSLSGSVFGGGTKLTVLG

The binders below were run against whole inactivated rabies virus (assay: phage ELISA, coated whole inactivated rabies virus).

Binder	OD 492 nm [OD 492 nm]
B1	0.057
B2	0.059
B3	0.056
